According to publication PMC3662692:
Values belong to the molecule of their own block, whether it stands above or below them.

Columns and labels:
[1] = molecular target: p85 regulatory subunit of PI3 kinase (PI3K-p85; p85α in Table 1) (UniProt P27986); assay: biotin-peptide streptavidin-agarose pull-down, Western blot; settings: reference: non-phosphorylated Cav1 peptide; sites Y14
[2] = molecular target: phospholipase Cγ1 (PLCγ1) (UniProt P19174); assay: as above; settings: reference: non-phosphorylated Cav1 peptide; sites Y14
[3] = molecular target: T1, caveolin-1 (human (endogenous in Chang cells)), Q03135; assay: co-IP; as a1, but Chang cells infected with N138 (PorBIB, P+) at MOI 20 for 1 h; endogenous Cav1 precipitated, Western blot; settings: remark: other sources report otherwise
T1 chain: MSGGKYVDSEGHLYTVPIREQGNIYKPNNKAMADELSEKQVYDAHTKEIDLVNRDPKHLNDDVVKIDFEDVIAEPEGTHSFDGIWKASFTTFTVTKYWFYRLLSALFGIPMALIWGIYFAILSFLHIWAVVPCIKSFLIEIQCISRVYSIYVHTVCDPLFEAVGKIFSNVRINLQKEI

[4] = molecular target: T1, caveolin-1 (human (endogenous in Chang …)); assay: co-IP; endogenous Cav1 precipitated with anti-Caveolin antibody (BD Transduction) and Protein G magnetic beads from Chang cell lysates (20 mM Tris, 150 mM NaCl, 1% Triton-X-100, pH 7.5); cells not infected or infected with N927 (PorBIA, P-) at MOI 20 for 1 h; in one experiment PLCγ1 inhibitor U73122 (10 µM) added 30 min before infection; Western blot; settings: remark: other sources report otherwise

Molecule: caveolin-1 (Cav1) 7-21 (from UniProt Q03135) Cav1 pY14 peptide
binding against the reference [1]: gained | binding against the reference [2]: gained

relative amount of Vav2 in the Cav1 precipitate, cells infected with N138 (non-infected cells = 100%) [3]: 99% | relative amount of Vav2 in the Cav1 precipitate, cells infected with N927 (non-infected cells = 100%) [4]: 50% | relative amount of Vav2 in the Cav1 precipitate, non-infected cells (reference) [4]: 100%
B1: Vav2, P52735 1-878 (natural protein)
chain: MEQWRQCGRWLIDCKVLPPNHRVVWPSAVVFDLAQALRDGVLLCQLLHNLSPGSIDLKDINFRPQMSQFLCLKNIRTFLKVCHDKFGLRNSELFDPFDLFDVRDFGKVISAVSRLSLHSIAQNKGIRPFPSEETTENDDDVYRSLEELADEHDLGEDIYDCVPCEDGGDDIYEDIIKVEVQQPMIRYMQKMGMTEDDKRNCCLLEIQETEAKYYRTLEDIEKNYMSPLRLVLSPADMAAVFINLEDLIKVHHSFLRAIDVSVMVGGSTLAKVFLDFKERLLIYGEYCSHMEHAQNTLNQLLASREDFRQKVEECTLKVQDGKFKLQDLLVVPMQRVLKYHLLLKELLSHSAERPERQQLKEALEAMQDLAMYINEVKRDKETLRKISEFQSSIENLQVKLEEFGRPKIDGELKVRSIVNHTKQDRYLFLFDKVVIVCKRKGYSYELKEIIELLFHKMTDDPMNNKDVKKSHGKMWSYGFYLIHLQGKQGFQFFCKTEDMKRKWMEQFEMAMSNIKPDKANANHHSFQMYTFDKTTNCKACKMFLRGTFYQGYMCTKCGVGAHKECLEVIPPCKFTSPADLDASGAGPGPKMVAMQNYHGNPAPPGKPVLTFQTGDVLELLRGDPESPWWEGRLVQTRKSGYFPSSSVKPCPVDGRPPISRPPSREIDYTAYPWFAGNMERQQTDNLLKSHASGTYLIRERPAEAERFAISIKFNDEVKHIKVVEKDNWIHITEAKKFDSLLELVEYYQCHSLKESFKQLDTTLKYPYKSRERSASRASSRSPASCASYNFSFLSPQGLSFASQGPSAPFWSVFTPRVIGTAVARYNFAARDMRELSLREGDVVRIYSRIGGDQGWWKGETNGRIGWFPSTYVEEEGIQ
